US20130203616A1

Key:
[1] = molecular target: Human serum albumin (HSA) (human) (UniProt P02768); assay: competitive indirect ELISA, antibody in 1% pooled normal human serum preincubated with HRP-conjugated HSA, then Protein A/G plate
[2] = molecular target: Human serum albumin (HSA) (human) (UniProt P02768); assay: bridging ELISA (HSA on plate, biotin-HSA in solution), antibody spiked in normal human serum, after Protein A/G enrichment and acid elution
[3] = molecular target: Human serum albumin (HSA) (human) (UniProt P02768); assay: bridging ELISA after sample preparation, plate coated with 20 µg/mL HSA, antibody in neat human serum
[4] = molecular target: Human serum albumin (HSA) (human) (UniProt P02768); assay: competitive indirect ELISA, antibody in buffer captured on Protein A/G plate, HRP-conjugated HSA detection
[5] = molecular target: Human serum albumin (HSA) (human) (UniProt P02768); assay: competitive indirect ELISA, antibody in neat human serum, mixed with HRP-conjugated HSA, then Protein A/G plate

detection limit [1]: 3 µg/mL | detection limit [2]: 125 ng/mL | limit of detection [3]: 250 ng/mL | lowest antibody concentration detected [4]: 0.48 ng/mL | assay sensitivity [5]: 10 µg/mL
Substance: Rabbit anti-HSA antibody, ABCAM ab31657
